Measurements as given in patent publication US20200116725.

Tests used:
[1] = system: P213 MMP9-cleavable peptide, Biotin-GGGPLGVRGKGGC
[2] = system: P120 thrombin-cleavable peptide, Biotin-GGGSGGGSGGfPRSGGGGGC
[3] = system: P220 MMP9-cleavable peptide, Biotin-GGGGGGGGGGPLGVRGKGGC
[4] = system: P113 thrombin-cleavable peptide, Biotin-SGGfPRSGGSGGC

Chain of P120 thrombin-cleavable peptide, Biotin-GGGSGGGSGGfPRSGGGGGC (chain, as listed by the source): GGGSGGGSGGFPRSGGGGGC
Chain of MMP9 (Active, Human, Recombinant, PF140, Merck Millipore) (chain, as listed by the source): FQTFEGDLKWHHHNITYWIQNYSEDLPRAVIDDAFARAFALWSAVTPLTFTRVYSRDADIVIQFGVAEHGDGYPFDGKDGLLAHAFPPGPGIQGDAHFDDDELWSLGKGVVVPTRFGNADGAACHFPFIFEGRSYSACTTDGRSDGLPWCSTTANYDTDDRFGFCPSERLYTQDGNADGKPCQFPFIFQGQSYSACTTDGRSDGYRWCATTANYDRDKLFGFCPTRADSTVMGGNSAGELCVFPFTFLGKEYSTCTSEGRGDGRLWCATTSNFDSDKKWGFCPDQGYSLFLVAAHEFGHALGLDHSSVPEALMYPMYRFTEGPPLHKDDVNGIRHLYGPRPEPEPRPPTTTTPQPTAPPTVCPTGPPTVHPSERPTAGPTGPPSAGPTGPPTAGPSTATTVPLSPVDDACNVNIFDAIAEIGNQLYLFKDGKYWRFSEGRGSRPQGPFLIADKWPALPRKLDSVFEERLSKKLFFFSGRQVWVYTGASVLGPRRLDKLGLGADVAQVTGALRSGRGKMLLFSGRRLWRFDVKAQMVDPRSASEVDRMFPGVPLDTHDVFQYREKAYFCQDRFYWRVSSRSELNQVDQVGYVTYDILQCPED

| Substance | fraction of AuNCs cleaved from AuNC-P213-NAv within 1 h, FCS, 50 nM MMP9 [1] | rate of cleavage by FCS (linear region, 50 nM MMP9), AuNC-P213-NAv complex [1] | % Cleavage (free AuNC fraction: 7-12 mL), gel filtration chromatography with catalytic activity readout; AuNC-P120-NAv + MMP9 (12 h) [2] | % Cleavage (free AuNC fraction: 7-12 mL), gel filtration chromatography with catalytic activity readout; AuNC-P220-NAv + MMP7/9/13 (12 h) [3] | % Cleavage (free AuNC fraction: 7-12 mL), gel filtration chromatography with catalytic activity readout; AuNC-P220-NAv + MMP9 (12 h) [3] | fraction of AuNCs cleaved from AuNC-P220-NAv within 1 h, FCS, 50 nM MMP9 [3] | rate of cleavage by FCS (linear region, 50 nM MMP9), AuNC-P220-NAv complex [3] | % Cleavage (free AuNC fraction: 7-12 mL), gel filtration chromatography with catalytic activity readout; AuNC-1:5-P120-NAv + THR (1 h), ca. 20 biotin ligands per AuNC [2] | % Cleavage (free AuNC fraction: 7-12 mL), gel filtration chromatography with catalytic activity readout; AuNC-1:20-P120-NAv + THR (1 h), ca. 5 biotin ligands per AuNC [2] | % Cleavage (free AuNC fraction: 7-12 mL), gel filtration chromatography with catalytic activity readout; AuNC-P120-NAv + THR (12 h) [2] | % Cleavage (free AuNC fraction: 7-12 mL), gel filtration chromatography with catalytic activity readout; AuNC-P113-NAv + THR (12 h) [4] | % Cleavage (free AuNC fraction: 7-12 mL), gel filtration chromatography with catalytic activity readout; AuNC-P220-NAv + THR (12 h) [3] |
| --- | --- | --- | --- | --- | --- | --- | --- | --- | --- | --- | --- | --- |
| MMP9 (Active, Human, Recombinant, PF140, Merck Millipore) | only 20% AuNCs are cleaved from the AuNC-P213-NAv complex | only 0.08% AuNC cleaved per minute | 7.1% | MMP9: 54.9% | 75.1% | 80% AuNCs are cleaved within the first hour of incubation with MMP9 | 3% AuNC cleaved per minute | – | – | – | – | – |
| MMP13 (Active, Human, Recombinant, 444287) | – | – | – | MMP13: 29.8% | – | – | – | – | – | – | – | – |
| thrombin from human plasma (T7009, Sigma) | – | – | – | – | – | – | – | 49.6% | 89.9% | 90.2% | 21.8% | 5.5% |
